The supplement of paper PMC9233669
Variants at the floor of the assay were thinned out.

Legend:
biotinyl-Phe-oxazolone = assay: self-aminoacylation, catalytic enhancement (BFO) (fold over background); higher = more active; k-Seq, kA / k0A0; sequences stand for … in GGGAAUGGAUCCACAUCUACGAAUUC…UUCACUGCAGACUUGACGAAGCUG
Summary of the method: (§1)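 The uncatalyzed rate is the low-activity peak of a bimodal Gaussian fit, and catalytic enhancement is median kA divided by it. The kA values came from pseudo-first-order fits, with 1000 bootstraps, of per-sequence fraction reacted measured by streptavidin capture, triplicate qPCR and Illumina sequencing. Mutagenized RNA pools with a 21-nt variable region (0.43 μM) were reacted with each biotinyl-aminoacyl-oxazolone at 2–1250 μM in 50 μL HEPES/NaCl/KCl/MgCl2/CaCl2 buffer with 5% acetonitrile, pH 6.9–7.0, for 90 minutes at room temperature.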

biotinyl-Ile-oxazolone = assay: self-aminoacylation, catalytic enhancement (BIO) (fold over background); higher = more active; k-Seq, kA / k0A0; sequences stand for … in GGGAAUGGAUCCACAUCUACGAAUUC…UUCACUGCAGACUUGACGAAGCUG
Summary of the method: as §1

biotinyl-Met-oxazolone = assay: self-aminoacylation, catalytic enhancement (BMO) (fold over background); higher = more active; k-Seq, kA / k0A0; sequences stand for … in GGGAAUGGAUCCACAUCUACGAAUUC…UUCACUGCAGACUUGACGAAGCUG
Summary of the method: as §1

biotinyl-Val-oxazolone = assay: self-aminoacylation, catalytic enhancement (BVO) (fold over background); higher = more active; k-Seq, kA / k0A0; sequences stand for … in GGGAAUGGAUCCACAUCUACGAAUUC…UUCACUGCAGACUUGACGAAGCUG
Summary of the method: as §1

biotinyl-Leu-oxazolone = assay: self-aminoacylation, catalytic enhancement (BLO) (fold over background); higher = more active; k-Seq, kA / k0A0; sequences stand for … in GGGAAUGGAUCCACAUCUACGAAUUC…UUCACUGCAGACUUGACGAAGCUG
Summary of the method: as §1

biotinyl-Trp-oxazolone = assay: self-aminoacylation, catalytic enhancement (BWO) (fold over background); higher = more active; k-Seq, kA / k0A0; sequences stand for … in GGGAAUGGAUCCACAUCUACGAAUUC…UUCACUGCAGACUUGACGAAGCUG
Summary of the method: as §1

Sequence	self-aminoacylation (biotinyl-Phe-oxazolone)	self-aminoacylation (biotinyl-Ile-oxazolone)	self-aminoacylation (biotinyl-Met-oxazolone)	self-aminoacylation (biotinyl-Val-oxazolone)	self-aminoacylation (biotinyl-Leu-oxazolone)	self-aminoacylation (biotinyl-Trp-oxazolone)
AUUACUCUGAUCAUCGAGUGA [Fam2.1 aminoacylation ribozyme variant]	19.3	2.93	5.85	2.95	5.35	6.7
AUUACUCUGGGCAUCGAGUGA [Fam2.1 aminoacylation ribozyme variant]	41.2	3.71	6.39	3.11	6.57	7.68
AUUACUCUGGUAAUCGAGUGA [Fam2.1 aminoacylation ribozyme variant]	45.5	3.66	7.65	3.46	8.85	9.06
AUUACUCUGGUCAUAGAGUGA [Fam2.1 aminoacylation ribozyme variant]	20.8	3.03	4.99	2.79	5.04	6.05
AUUACUCUGGUCAUCGAGAGA [Fam2.1 aminoacylation ribozyme variant]	1.03	0.907	0.867	0.908	0.713	0.523
AUUACUCUGGUCAUCGAGUCA [Fam2.1 aminoacylation ribozyme variant]	1.04	1.09	0.944	0.978	0.928	0.628
AUUACUUUGGUCAUCGAGUGA [Fam2.1 aminoacylation ribozyme variant]	25.8	3.55	6.07	3.57	7.1	8.06
AUUAGCCGGGUCAUCGAGUGA [Fam2.1 aminoacylation ribozyme variant]	40.5	3.91	6.22	4.51	6.37	7.69
AUUAGCCUGGCCAUCGAGUGA [Fam2.1 aminoacylation ribozyme variant]	26.4	3.83	5.44	3.54	4.51	6.06
AUUAGCCUGGUCAGCGAGUGA [Fam2.1 aminoacylation ribozyme variant]	9.96	3.09	3.65	3.39	5.47	4.85
AUUAGCCUGGUCAUCGAGUAA [Fam2.1 aminoacylation ribozyme variant]	1.85	1.52	1.31	1.51	1.57	0.949
AUUAGCCUGGUCAUCGAGUUA [Fam2.1 aminoacylation ribozyme variant]	1.15	1.36	1.41	1.24	1.27	0.867
AUUAGCCUGGUCAUUGAGUGA [Fam2.1 aminoacylation ribozyme variant]	62.6	4.89	9.25	5.01	10.3	12.3
AUUAGCCUGGUCUUCGAGUGA [Fam2.1 aminoacylation ribozyme variant]	35.9	3.5	5.53	3.28	5.63	6.87
AUUAGCCUGGUUAUCGAGUGA [Fam2.1 aminoacylation ribozyme variant]	74.4	5.67	11.3	5.37	12.2	13.7
AUUAGCGUGGUCAUCGAGUGA [Fam2.1 aminoacylation ribozyme variant]	13.5	2.8	3.55	3.1	4.67	5
AUUAUCAUGGUCAUCGAGUGA [Fam2.1 aminoacylation ribozyme variant]	10.8	3.56	6.24	3.44	6.75	8.2
AUUAUCCAGGUCAUCGAGUGA [Fam2.1 aminoacylation ribozyme variant]	30.3	3.13	6.52	3.41	6.32	7.93
AUUAUCCUGCUCAUCGAGUGA [Fam2.1 aminoacylation ribozyme variant]	2.88	1.76	2.69	1.8	2.77	3.08
AUUAUCCUGGUCACCGAGUGA [Fam2.1 aminoacylation ribozyme variant]	54	3.11	7.82	3.84	8.43	8.39
AUUAUCCUGGUCAUCGAGUGU [Fam2.1 aminoacylation ribozyme variant]	15.3	4.25	11.1	4.73	10.2	9.45
AUUAUCCUGGUCCUCGAGUGA [Fam2.1 aminoacylation ribozyme variant]	21.9	2.4	4.56	2.33	5.19	6.54
AUUAUCCUGGUCUUCGAGUGA [Fam2.1 aminoacylation ribozyme variant]	37.6	3.26	5.8	2.93	5.95	7.67
AUUAUCCUGGUUAUCGAGUGA [Fam2.1 aminoacylation ribozyme variant]	71.3	5.55	12.2	4.88	13.5	14.7
AUUAUGCUGGUCAUCGAGUGA [Fam2.1 aminoacylation ribozyme variant]	14.9	3.15	4.1	2.69	4.22	5.2
